Results taken from patent US8692070B2, “Plants with improved nitrogen utilization and stress tolerance” (Iowa Corn Promotion Board, priority 2009, dated 2014).

What was measured:
Format in all cases: biochemical, Brevibacillus laterosporus
NAGK enzyme [1] = test: NAGK enzyme assay, titration with arginine; settings: NAGK 100 ng/mL; for A540 nm: 70 mM NAG, 30 minutes 37° C., no-arginine control 0.284
Description: (§1) The NAGK enzyme assay was adapted from the method of Denes (1970). Product formation was quantified using a Spectramax 190 spectrophotometer at 540 nm.
The following master mix for NAGK in vitro enzyme assays was prepared for the purpose of determining the effect of arginine on NAGK enzyme activity: 50 mM Tris; final pH was 5.5;100 mM hydroxylamine (NH2OH); 10 mM MgCl2; 7 mM ATP; 70 mM NAG.
This master mix was subdivided into individual wells in a 96-well plate (200 uL/well final volume), and then varying concentrations of arginine (0.15 mM to 10 mM) were then added to individual wells. The enzyme reactions were then initiated by addition of NAGK enzyme (100 ng/mL). Following 30 minutes of incubation at 37° C., the absorbance of each sample was quantified. A control reaction without arginine was prepared an analyzed alongside.

NAGK enzyme [2] = test: NAGK enzyme assay, titration with substrate (NAG); settings: 1000 ng/mL NAGK, 1 hour 37° C., no-substrate control (0.041) subtracted
Description: as §1
The following master mix for NAGK in vitro enzyme assays was prepared for the purpose of titrating the substrate (NAG) into the reaction: 50 mM Tris; final pH was 5.5; 100 mM hydroxylamine (NH2OH); 10 mM MgCl2; 7 mM ATP; 1000 ng/mL NAGK enzyme (from protein extract).
This master mix was subdivided into individual wells in a 96-well plate (200 uL/well final volume), and reactions were then initiated by adding various concentrations of the substrate NAG into individual sample wells. The NAG concentrations ranged from 1.6 mM up to 100 mM. Following 1 hour of incubation at 37° C., the absorbance of each sample was quantified. A control reaction without substrate was prepared an analyzed alongside.

NAGK enzyme [3] = test: NAGK enzyme assay, titration with NAGK enzyme; settings: 70 mM NAG, 1 hour 37° C.; for A540 nm: buffer control (0.040) subtracted
Description: NAGK overexpression vector pAX4389 was transformed into electrocompetent E. coli cells (BL21 *DE3, Invitrogen) and single colonies were obtained by selection on the antibiotic kanamycin. An individual colony was then grown in liquid medium (LB broth) until the culture absorbance (at 600 nm) reached 0.6, and then 0.5 mM IPTG was added to induce expression from the T7 promoter. Induction was carried out overnight at 16° C. The following day, the induced culture was centrifuged and the pellet was frozen for two hours at −20° C. After thawing on ice, the pellet was resuspended in […] of lysis buffer (50 mM Hepes, pH 7.0, 50 mM NaCl), treated with Lysozyme (Novagen) at room temperature for 30 minutes, and then sonicated to lyse the cells. Insoluble material was separated from the soluble protein extract through centrifugation. This protein extract was then stored in an ice bucket, and NAGK enzyme assays were prepared a short time later. As a negative control, a control vector was prepared alongside that directed the overexpression of a bacterial EPSPS enzyme in the same base vector (pRSF-1b). This vector was likewise transformed into the same E. coli cell line and a transformant colony was selected for protein overexpression and a protein extract was prepared alongside NAGK.
as §1
A master mix for the NAGK in vitro reaction was prepared with the following components: 50 mM Tris, pH 8.0; final pH of the master mix was 5.5; 100 mM hydroxylamine (NH2OH); 10 mM MgCl2; 7 mM ATP; 70 mM N-acetylglutamate (NAG).
This master mix was subdivided into individual wells in a 96-well plate (200 uL/well final volume), and reactions were then initiated by adding various concentrations of NAGK protein extract into individual sample wells. Following 1 hour of incubation at 37° C., the absorbance of each sample was quantified. The quantity of NAGK protein in the extract was estimated by loading dilutions of the extract on a SDS-polyacrylamide gel alongside known concentrations of a bovine serum albumin standard, and then staining the gel with Coomassie protein stain (Simply Blue, Invitrogen).
By this method, it was observed that addition of NAGK protein extract at concentrations as low as 1 ng/mL generated an absorbance product at 540 nm. The absorbance results from the enzyme product (N-actylglutamyl-5-phosphate) reacting with hydroxylamine to create the absorbent compound N-acetyglutamyl-5-hydroxamate. The graph (FIG. 1) and table (Table 3) show the absorbance at each of 6 different concentrations of NAGK protein. The baseline absorbance generated by a buffer control (A540=0.04) was subtracted from each NAGK absorbance value.

N=C(N)NCCC[C@H](N)C(=O)O [Arginine, arginine]
A540 nm (NAGK enzyme [1]; Arginine 0.16 mM): 0.291
A540 nm (NAGK enzyme [1]; Arginine 0.31 mM): 0.259
A540 nm (NAGK enzyme [1]; Arginine 0.63 mM): 0.263
A540 nm (NAGK enzyme [1]; Arginine 1.25 mM): 0.237
A540 nm (NAGK enzyme [1]; Arginine 2.5 mM): 0.257
A540 nm (NAGK enzyme [1]; Arginine 5 mM): 0.266
A540 nm (NAGK enzyme [1]; Arginine 10 mM): 0.287
effect of arginine on product formation by the NAGK enzyme (NAGK enzyme [1]; arginine 0.15 mM to 10 mM): insensitive

B1: NAGK: arginine-insensitive N-acetyl glutamate kinase (SEQ ID NO:2) from Brevibacillus laterosporus, 6-histidine tagged, E. coli protein extract (protein)
chain: MLHEVMVIKCGGSMLEQLPESFYNKLATLQAEGRSIVIVHGGGPAINQMLEQLKIEPTFSNGLRVTDEPTMQAVEMVLSGPINKLVVRKLLHAGGKAWGLSGVDGSLLQAVEKTQGLGLVGSITVVDQAPLQLLLSNGYIPVVSPIAVSEDGRTRYNCNADTVAGAIASALGAKQLLMLTDVPGIWAENELGEKQLLPTVTTEDIQLMMKNQIITGGMIPKVQAALDALAQGVQEVVICKGEAETLDGVVKGMAVGTSISAEMSRGQDSQAFISNKV
modifications: Zea mays
A540 nm (NAGK enzyme [2]; NAG 1.6 mM): 0.07
A540 nm (NAGK enzyme [2]; NAG 3.1 mM): 0.13
A540 nm (NAGK enzyme [2]; NAG 6.3 mM): 0.0212
A540 nm (NAGK enzyme [2]; NAG 12.5 mM): 0.313
A540 nm (NAGK enzyme [2]; NAG 25 mM): 0.411
A540 nm (NAGK enzyme [2]; NAG 50 mM): 0.515
A540 nm (NAGK enzyme [2]; NAG 100 mM): 0.57
lowest concentration of NAGK protein extract that generated an absorbance product at 540 nm (NAGK enzyme [3]): 1 ng/mL
A540 nm (NAGK enzyme [3]; NAGK 1 ng/mL): 0.001
A540 nm (NAGK enzyme [3]; NAGK 3.9 ng/mL): 0.002
A540 nm (NAGK enzyme [3]; NAGK 15.6 ng/mL): 0.039
A540 nm (NAGK enzyme [3]; NAGK 62.5 ng/mL): 0.0159
A540 nm (NAGK enzyme [3]; NAGK 250 ng/mL): 0.518
A540 nm (NAGK enzyme [3]; NAGK 1000 ng/mL): 0.872
